Patent US7250304B2, “Functional assay of high-density lipoprotein” (The Regents of the University of California, priority 2000, dated 2007)

What was measured:
[1] = tested on: human artery wall cell cocultures; assay: LDL oxidation by human artery wall cell cocultures (lipid hydroperoxides); type: cell-based
Protocol: (§1) The wells of the microtiter plates were treated with 0.1% gelatin at 37° C. overnight. HASMC were added at a confluent density of 1×10^5 cells/cm^2. Cells were cultured for 2 d at which time they had covered the entire surface of the well and had produced a substantial amount of extracellular matrix. HAEC were subsequently added at 2×10^5 cells/cm^2 and were allowed to grow forming a complete monolayer of confluent HAEC in 2 d. In all experiments, HAEC and autologous HASMC (from the same donor) were used at passage levels of four to six.
In general, the cocultures were treated with native LDL (250 μg/ml) in the absence or presence of HDL for 8 h. The supernatants were collected and used for determination of lipid hydroperoxide levels. The cocultures were subsequently washed and fresh culture medium 199 (M199) without any additions was added and incubated for an additional 8 hrs. This allowed the collection of monocyte chemotactic activity released by the cells as a result of stimulation by the oxidized LDL. At the end of incubation, the supernatants were collected from cocultures, diluted 40-fold, and assayed for monocyte chemotactic activity. […] The number of migrated monocytes was determined microscopically and expressed as the mean±SD of 12 standardized high power fields counted in quadruple wells.
Statistical significance was determined by model 1 ANOVA. […]

[2] = tested on: Ox-PAPC, POVPC, PGPC, PEIPC; type: cell-based, human
[3] = tested on: human artery wall cell cocultures; assay: Monocyte chemotaxis assay on coculture conditioned medium; type: cell-based; conditions: cocultures incubated 8 hrs with agent, agent removed before LDL
Protocol: as §1
Monocytes were isolated using a modification of the Recalde method as previously described (Fogelman et al. (1988) J. Lipid Res. 29: 1243-1247) from the blood of normal volunteers after obtaining written consent under a protocol approved by the human research subject protection committee of the University of California, Los Angeles.
In general, the cocultures were treated with native LDL (250 μg/ml) in the absence or presence of HDL for 8 h. The supernatants were collected and used for determination of lipid hydroperoxide levels. The cocultures were subsequently washed and fresh culture medium 199 (M199) without any additions was added and incubated for an additional 8 hrs. […] The number of migrated monocytes was determined microscopically and expressed as the mean±SD of 12 standardized high power fields counted in quadruple wells.

B1: PON: purified human paraoxonase, HDL associated enzyme (protein, UniProt P27169 2-355, looked up)
Serum …: AKLIALTLLGMGLALFRNHQSSYQTRLNALREVQPVELPNCNLVKGIETGSEDLEILPNGLAFISSGLKYPGIKSFNPNSPGKILLMDLNEEDPTVLELGITGSKFDVSSFNPHGISTFTDEDNAMYLLVVNHPDAKSTVELFKFQEEEKSLLHLKTIRHKLLPNLNDIVAVGPEHFYGTNDHYFLDPYLQSWEMYLGLAWSYVVYYSPSEVRVVAEGFDFANGINISPDGKYVYIAELLAHKIHVYEKHANWTLTPLKSLDFNTLVDNISVDPETGDLWVGCHPNGMKIFFYDSENPPASEVLRIQNILTEEPKVTQVYAENGTVLQGSTVASVYKGKLLIGTVFHKALYCEL
[1]; cocultures incubated 8 hrs with agent, agent removed before LDL 250 μg/ml
  ability of pretreated artery wall cocultures to oxidize LDL: rendered the artery wall cells incapable of oxidizing IDL
[1]; human LDL incubated with agent, re-isolated, then cocultures 8 hrs
  oxidation by artery wall cells of LDL pre-incubated with the agent: rendered the LDL resistant to oxidation
[2]
  biologic activity (induction of monocyte chemotactic activity) of Ox-PAPC, POVPC, PGPC, PEIPC after incubation with enzyme: destruction of the biologic activity of each
[3]
  LDL-induced monocyte chemotaxis in pretreated cocultures: prevented LDL-induced monocyte chemotaxis
